Assay results: patent US5736143, “Anti-inflammatory, tolerogenic and immunoinhibiting properties of carbohydrate binding-peptides” (Alberta Research Council, dated 1998)
No end group written: not given here. *: point of attachment. Biotin = O=C1N[C@H]2[C@H](CS[C@H]2CCCCC(=O)*)N1

B1: fetuin (other)
chain: IPLDPVAGYKEPACDDPDTEQAALAAVDYINKHLPRGYKHTLNQIDSVKVWPRRPTGEVYDIEIDTLETTCHVLDPTPLANCSVRQQTQHAVEGDCDIHVLKQDGQFSVLFTKCDSSPDSAEDVRKLCPDCPLLAPLNDSRVVHAVEVALATFNAESNGSYLQLVEISRAQFVPLPVSVSVEFAVAATDCIAKEVVDPTKCNLLAEKQYGFCKGSVIQKALGGEDVRVTCTLFQTQPVIPQPQPDGAEAEAPSAVPDAAGPTPSAAGPPVASVVVGPSVVAVPLPLHRAHYDLRHTFSGVASVESSSGEAFHVGKTPIVGQPSIPGGPVRLCPGRIRYFKI
modifications: sialylated glycans (multiple copies of the αNeu5Ac(2→3)βGal(1→4)βGlc- structure)

Tests used:
[1] = biological target: αNeuAc(2-3)βGal(1-4)βGlcNAc-BSA (bovine) (UniProt P02769); assay: direct ELISA, 0.5 µg biotinylated peptide on BSA conjugate coated at 50 µg/mL
[2] = biological target: αNeuAc(2-3)βGal(1-3)βGlcNAc-BSA with (1-4) αFuc (bovine) (UniProt P02769); assay: as above
[3] = biological target: αNeuAc(2-6)βGal(1-4)βGlcNAc-BSA (bovine) (UniProt P02769); assay: as above
[4] = biological target: αNeuAc(2-3)βGal(1-4)βGlcNAc-BSA with (1-3) αFuc (bovine) (UniProt P02769); assay: as above
[5] = biological target: αNeuAc(2-3)βGal(1-3)βGlcNAc-BSA (bovine) (UniProt P02769); assay: as above
[6] = biological target: fetuin (Bos taurus (Bovine)) (UniProt P12763); assay: inhibition ELISA; competitor WGA-biotin on coated fetuin
[7] = biological target: fetuin (Bos taurus (Bovine)) (UniProt P12763); assay: inhibition ELISA; competitor PT-biotin on coated fetuin; peptide 1.0 mg/mL
[8] = biological target: fetuin (Bos taurus (Bovine)) (UniProt P12763); assay: inhibition ELISA; competitor WGA-biotin on coated fetuin; peptide 1.0 mg/mL
[9] = biological target: fetuin (Bos taurus (Bovine)) (UniProt P12763); assay: inhibition ELISA; competitor MAL-biotin on coated fetuin; peptide 1.0 mg/mL
[10] = biological target: fetuin (Bos taurus (Bovine)) (UniProt P12763); assay: inhibition ELISA; competitor PT-biotin on coated fetuin
[11] = biological target: fetuin (Bos taurus (Bovine)) (UniProt P12763); assay: inhibition ELISA; competitor SNA-biotin on coated fetuin; peptide 1.0 mg/mL
[12] = biological target: fetuin (Bos taurus (Bovine)) (UniProt P12763); assay: inhibition ELISA; competitor ACS2P1-biotin on coated fetuin; peptide 5520 µM
[13] = biological target: fetuin (Bos taurus (Bovine)) (UniProt P12763); assay: inhibition ELISA; competitor WGA-biotin on coated fetuin; peptide 4.4 mg/mL
[14] = biological target: fetuin (Bos taurus (Bovine)) (UniProt P12763); assay: inhibition ELISA; competitor SNA-biotin on coated fetuin; peptide 4.4 mg/mL
[15] = biological target: fetuin (Bos taurus (Bovine)) (UniProt P12763); assay: inhibition ELISA; competitor SNA-biotin on coated fetuin; peptide 4.4 mg/ml (Table II prints -2 ± 2)
[16] = biological target: fetuin (Bos taurus (Bovine)) (UniProt P12763); assay: inhibition ELISA; competitor WGA-biotin on coated fetuin; peptide 4.4 mg/ml (repeats Table II)
[17] = biological target: fetuin (Bos taurus (Bovine)) (UniProt P12763); assay: inhibition ELISA; competitor MAL-biotin on coated fetuin; peptide 4.4 mg/ml (repeats Table II)
[18] = biological target: fetuin (Bos taurus (Bovine)) (UniProt P12763); assay: inhibition ELISA; competitor MAL-biotin on coated fetuin; peptide 4.4 mg/mL
[19] = biological target: asialofetuin (Bos taurus (Bovine)) (UniProt P12763); assay: inhibition ELISA; competitor ACS2P1-biotin on coated asialofetuin; peptide 5520 µM
[20] = biological target: asialofetuin (Bos taurus (Bovine)) (UniProt P12763); assay: inhibition ELISA; competitor PT-biotin on coated asialofetuin; peptide 4.4 mg/mL
[21] = biological target: fetuin (Bos taurus (Bovine)) (UniProt P12763); assay: inhibition ELISA; competitor PT-biotin on coated fetuin; peptide 4.4 mg/ml (repeats Table II)
[22] = biological target: fetuin (Bos taurus (Bovine)) (UniProt P12763); assay: inhibition ELISA; competitor PT-biotin on coated fetuin; peptide 4.4 mg/mL
[23] = biological target: pertussis toxin (Bordetella pertussis) (UniProt P04977)
pertussis toxin [24] = biological target: T1, pertussis toxin (Bordetella pertussis, UniProt P04977); assay: inhibition ELISA; fetuin against ACS2P1-biotin on immobilised PT
fetuin [25] = biological target: B1; assay: inhibition ELISA; competitor WGA-biotin on coated fetuin
fetuin [26] = biological target: B1; assay: inhibition ELISA; competitor ACS2P1-biotin on coated fetuin; concentration giving -50% (called IC50 in paragraph 228, n=2)
asialofetuin = biological target: T2, asialofetuin (Bos taurus (Bovine), UniProt P12763, glycans without sialic acid (asialo-)); assay: direct ELISA, 10 µg/ml biotinylated peptide on glycoprotein coated at 3 µg/ml
T2 sequence: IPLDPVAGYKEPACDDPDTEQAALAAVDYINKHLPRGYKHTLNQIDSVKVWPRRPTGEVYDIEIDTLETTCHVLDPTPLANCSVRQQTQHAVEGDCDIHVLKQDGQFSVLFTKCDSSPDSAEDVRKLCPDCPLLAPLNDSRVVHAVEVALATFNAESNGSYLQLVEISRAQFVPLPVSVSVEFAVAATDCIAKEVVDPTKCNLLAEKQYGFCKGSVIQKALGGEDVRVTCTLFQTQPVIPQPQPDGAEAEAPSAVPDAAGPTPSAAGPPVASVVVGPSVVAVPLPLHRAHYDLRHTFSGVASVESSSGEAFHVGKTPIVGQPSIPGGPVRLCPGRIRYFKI

asialoagalactofetuin = biological target: T3, asialoagalactofetuin (Bos taurus (Bovine), UniProt P12763, glycans without sialic acid and galactose (asialoagalacto-)); assay: as above
T3 sequence: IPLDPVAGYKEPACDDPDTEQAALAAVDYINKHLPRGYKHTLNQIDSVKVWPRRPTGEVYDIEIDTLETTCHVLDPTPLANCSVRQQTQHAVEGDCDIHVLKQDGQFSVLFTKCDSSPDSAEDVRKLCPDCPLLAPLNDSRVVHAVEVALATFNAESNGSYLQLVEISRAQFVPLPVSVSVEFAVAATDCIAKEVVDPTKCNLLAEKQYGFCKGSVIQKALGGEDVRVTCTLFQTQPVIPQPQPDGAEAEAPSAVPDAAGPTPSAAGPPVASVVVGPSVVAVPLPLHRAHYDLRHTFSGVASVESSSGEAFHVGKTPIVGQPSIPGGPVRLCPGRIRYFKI

[27] = biological target: αNeuAc(2-6)βGal(1-4)βGlcNAc-BSA (bovine, UniProt P02769, conjugated carbohydrate αNeuAc(2-6)βGal(1-4)βGlcNAc-); assay: direct ELISA, 0.1 µg biotinylated peptide on BSA conjugate coated at 50 µg/mL
[28] = biological target: αNeuAc(2-3)βGal(1-4)βGlcNAc-BSA (bovine, UniProt P02769, conjugated carbohydrate αNeuAc(2-3)βGal(1-4)βGlcNAc-); assay: as above
[29] = biological target: αNeuAc(2-3)βGal(1-3)βGlcNAc-BSA (bovine, UniProt P02769, conjugated carbohydrate αNeuAc(2-3)βGal(1-3)βGlcNAc-); assay: as above
[30] = biological target: αNeuAc(2-3)βGal(1-4)βGlcNAc-BSA with (1-3) αFuc (bovine, UniProt P02769, conjugated carbohydrate αNeuAc(2-3)βGal(1-4)[αFuc(1-3)]βGlcNAc-); assay: as above
[31] = biological target: αNeuAc(2-3)βGal(1-3)βGlcNAc-BSA with (1-4) αFuc (bovine, UniProt P02769, conjugated carbohydrate αNeuAc(2-3)βGal(1-3)[αFuc(1-4)]βGlcNAc-); assay: as above
pertussis toxin [32] = biological target: T1, pertussis toxin; assay: cell-based or functional assay

In the case of “SPYGRC-biotin (peptide; other documents disagree on this pair)”, the % binding relative to fetuin [1] is reported as 120%, the % binding relative to fetuin [2] is reported as 103% and the % binding relative to fetuin [3] is reported as 122%. The % binding relative to fetuin [4] was 120% and the % binding relative to fetuin [5] was 97%.

WGA(62-73) (peptide) was tested, and the IC50 [6] was 3.4 mM, the percent change in binding activity [7] was -32% and the percent change in binding activity [8] was -9%. The percent change in binding activity [9] was -1%, the IC50 [10] was 1.5 mM and the percent change in binding activity [11] was -3%.

Work on “SPYGRC (peptide; other documents disagree on this pair)” yielded a percent change in binding activity [12] of -24%, a percent change in binding activity [13] of 7% and a percent change in binding activity [14] of -2%. It also gave a % changes in binding activity [15] of -2%, a % changes in binding activity [16] of 7% and a % changes in binding activity [17] of -16%. The percent change in binding activity [18] was -16%, the percent change in binding activity [19] was -54% and the percent change in binding activity [20] was 7%. It also gave a % changes in binding activity [21] of 34% and a percent change in binding activity [22] of 34%.

SPYGRC (peptide) was tested, and the Maximal Inhibitory Concentration for Greater than 50% Inhibition (CHO cell clumping) [23] was 480 pg/mL.

With B1 the IC50 (pertussis toxin [24]) was 50 µM.

For PQEQITQHGSPYGRC (also: acetylated, site not given here) [ACS2P1], the IC50 (fetuin [25]) was 3.25 mM and the IC50 (fetuin [26]) was 4.1 µM.

For PQEQITQHGSPYGRC (biotinylated at the terminal proline; C-terminal -CO--NH2; acetylated (position not given)) [ACS2P1-biotin], the “% binding relative to fetuin” value (asialofetuin) was 45%, the “% binding relative to fetuin” value (asialoagalactofetuin) was 93% and the “% binding relative to fetuin” value [27] was 94%. For the same molecule, the “% binding relative to fetuin” value [28] was 117%, the “% binding relative to fetuin” value [29] was 70% and the “% binding relative to fetuin” value [30] was 84%. For the same molecule, the “% binding relative to fetuin” value [31] was 84%.

For STPGIVIPPQEQITQHGSPYGRC [S2P2], the “Maximal Inhibitory Concentration for Greater than 50% Inhibition (CHO cell clumping)” value (pertussis toxin [32]) was over 300 ng/mL.

With PKALFTQQGGAYGRC [S3P1] the “Maximal Inhibitory Concentration for Greater than 50% Inhibition (CHO cell clumping)” value (pertussis toxin [32]) was over 300 ng/mL.

In the case of VAPGIVIPPKALFTQQGGAYGRC [S3P2], the “Maximal Inhibitory Concentration for Greater than 50% Inhibition (CHO cell clumping)” value (pertussis toxin [32]) is reported as over 300 ng/mL.

RLLASTNSRLCAVFVRDG [S3P9a] was tested, and the “Maximal Inhibitory Concentration for Greater than 50% Inhibition (CHO cell clumping)” value (pertussis toxin [32]) was over 300 ng/mL.
